Assay [1] concerns the target αvβ6 integrin (purified, captured on the ELISA plate) (UniProt P06756). Kind of assay: ELISA (format not detailed at this place); not bearing K(IPA)E.
In assay [2] the target is αvβ6 integrin on DX3puroβ6 cells (human) (UniProt P06756). Kind of assay: internalization of the radiotracer, DX3puroβ6 cells (FIG. 27).
Assay [3] shares this target. Put plainly: cell binding of the radiotracer, DX3puroβ6 cells (FIG. 27).

Chain of αvβ6 integrin on DX3puroβ6 cells (human) (P06756 31-1048 limits assumed, chain 1 of 2): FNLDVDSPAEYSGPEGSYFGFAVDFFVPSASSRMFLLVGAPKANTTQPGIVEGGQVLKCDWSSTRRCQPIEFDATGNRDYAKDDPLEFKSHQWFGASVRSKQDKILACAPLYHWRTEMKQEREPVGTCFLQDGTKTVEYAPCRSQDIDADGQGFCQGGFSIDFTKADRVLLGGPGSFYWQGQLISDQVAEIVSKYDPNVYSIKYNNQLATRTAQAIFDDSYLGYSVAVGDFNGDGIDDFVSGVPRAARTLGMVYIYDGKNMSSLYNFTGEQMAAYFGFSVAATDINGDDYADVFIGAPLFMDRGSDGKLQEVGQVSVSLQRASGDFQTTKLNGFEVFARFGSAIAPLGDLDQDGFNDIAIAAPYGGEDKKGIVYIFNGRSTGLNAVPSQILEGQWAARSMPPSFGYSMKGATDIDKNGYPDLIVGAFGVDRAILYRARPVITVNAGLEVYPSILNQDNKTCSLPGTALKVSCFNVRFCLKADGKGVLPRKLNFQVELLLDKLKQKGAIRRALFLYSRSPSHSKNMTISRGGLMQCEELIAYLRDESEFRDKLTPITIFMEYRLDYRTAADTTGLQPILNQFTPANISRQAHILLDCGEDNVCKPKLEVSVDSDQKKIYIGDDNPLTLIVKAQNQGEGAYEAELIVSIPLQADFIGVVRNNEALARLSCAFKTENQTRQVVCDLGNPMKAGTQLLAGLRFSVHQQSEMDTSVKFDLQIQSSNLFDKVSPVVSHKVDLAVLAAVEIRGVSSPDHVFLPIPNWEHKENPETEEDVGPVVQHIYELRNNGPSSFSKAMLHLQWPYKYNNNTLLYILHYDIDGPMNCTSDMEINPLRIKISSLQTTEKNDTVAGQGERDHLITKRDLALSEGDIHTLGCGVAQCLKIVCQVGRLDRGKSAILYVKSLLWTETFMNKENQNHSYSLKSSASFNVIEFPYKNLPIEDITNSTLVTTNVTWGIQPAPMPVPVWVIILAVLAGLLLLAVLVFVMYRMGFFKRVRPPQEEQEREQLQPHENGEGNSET
Chain of αvβ6 integrin on DX3puroβ6 cells (human) (P18564 22-788 limits assumed, chain 2 of 2, further chain): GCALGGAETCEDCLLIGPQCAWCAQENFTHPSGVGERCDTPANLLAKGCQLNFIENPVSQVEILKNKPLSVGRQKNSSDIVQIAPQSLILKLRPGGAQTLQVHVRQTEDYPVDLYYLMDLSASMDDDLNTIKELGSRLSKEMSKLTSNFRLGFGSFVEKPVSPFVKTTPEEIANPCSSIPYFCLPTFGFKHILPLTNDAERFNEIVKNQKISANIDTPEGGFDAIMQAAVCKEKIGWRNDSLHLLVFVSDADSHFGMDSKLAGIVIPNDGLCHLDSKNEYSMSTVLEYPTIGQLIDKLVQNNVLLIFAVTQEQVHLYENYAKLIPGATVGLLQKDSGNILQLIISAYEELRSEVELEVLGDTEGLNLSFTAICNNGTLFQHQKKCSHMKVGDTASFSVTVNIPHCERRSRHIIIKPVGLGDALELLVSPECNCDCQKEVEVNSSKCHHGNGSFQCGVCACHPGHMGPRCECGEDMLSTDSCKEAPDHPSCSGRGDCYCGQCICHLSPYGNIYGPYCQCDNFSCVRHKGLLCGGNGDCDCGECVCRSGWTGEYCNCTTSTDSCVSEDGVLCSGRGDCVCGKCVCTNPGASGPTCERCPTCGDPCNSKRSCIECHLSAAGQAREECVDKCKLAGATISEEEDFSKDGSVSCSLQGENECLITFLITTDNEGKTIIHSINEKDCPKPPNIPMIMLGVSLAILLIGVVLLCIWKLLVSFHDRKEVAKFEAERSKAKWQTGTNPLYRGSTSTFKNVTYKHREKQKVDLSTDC
Chain of αvβ6 integrin (purified, captured on the ELISA plate) (P06756 31-992, chain 1 of 2): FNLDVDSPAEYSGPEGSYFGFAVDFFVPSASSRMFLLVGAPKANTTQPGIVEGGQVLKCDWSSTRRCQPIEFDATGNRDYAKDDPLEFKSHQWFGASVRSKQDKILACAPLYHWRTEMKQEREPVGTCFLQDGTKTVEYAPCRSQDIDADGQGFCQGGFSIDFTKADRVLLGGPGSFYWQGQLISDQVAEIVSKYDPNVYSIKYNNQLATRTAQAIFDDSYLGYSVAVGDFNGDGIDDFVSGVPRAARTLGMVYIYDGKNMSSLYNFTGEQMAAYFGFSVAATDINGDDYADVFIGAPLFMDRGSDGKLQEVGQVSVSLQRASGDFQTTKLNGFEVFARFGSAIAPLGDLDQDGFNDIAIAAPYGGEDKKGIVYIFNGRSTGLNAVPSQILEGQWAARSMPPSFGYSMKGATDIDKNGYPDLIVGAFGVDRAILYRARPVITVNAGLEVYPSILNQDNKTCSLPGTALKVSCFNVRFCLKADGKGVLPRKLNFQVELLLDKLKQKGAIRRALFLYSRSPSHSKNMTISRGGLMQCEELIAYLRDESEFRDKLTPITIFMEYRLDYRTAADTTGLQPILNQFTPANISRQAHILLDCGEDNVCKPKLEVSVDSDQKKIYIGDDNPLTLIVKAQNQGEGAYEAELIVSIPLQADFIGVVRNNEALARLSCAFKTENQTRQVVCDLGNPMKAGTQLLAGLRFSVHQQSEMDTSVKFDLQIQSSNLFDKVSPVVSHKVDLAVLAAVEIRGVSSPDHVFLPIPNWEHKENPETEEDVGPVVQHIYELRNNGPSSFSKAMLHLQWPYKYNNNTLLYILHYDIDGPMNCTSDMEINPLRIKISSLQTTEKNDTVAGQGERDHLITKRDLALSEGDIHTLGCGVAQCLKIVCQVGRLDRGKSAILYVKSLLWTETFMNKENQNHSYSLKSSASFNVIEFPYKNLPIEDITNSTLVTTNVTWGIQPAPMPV
Chain of αvβ6 integrin (purified, captured on the ELISA plate) (P18564 22-707, chain 2 of 2, further chain): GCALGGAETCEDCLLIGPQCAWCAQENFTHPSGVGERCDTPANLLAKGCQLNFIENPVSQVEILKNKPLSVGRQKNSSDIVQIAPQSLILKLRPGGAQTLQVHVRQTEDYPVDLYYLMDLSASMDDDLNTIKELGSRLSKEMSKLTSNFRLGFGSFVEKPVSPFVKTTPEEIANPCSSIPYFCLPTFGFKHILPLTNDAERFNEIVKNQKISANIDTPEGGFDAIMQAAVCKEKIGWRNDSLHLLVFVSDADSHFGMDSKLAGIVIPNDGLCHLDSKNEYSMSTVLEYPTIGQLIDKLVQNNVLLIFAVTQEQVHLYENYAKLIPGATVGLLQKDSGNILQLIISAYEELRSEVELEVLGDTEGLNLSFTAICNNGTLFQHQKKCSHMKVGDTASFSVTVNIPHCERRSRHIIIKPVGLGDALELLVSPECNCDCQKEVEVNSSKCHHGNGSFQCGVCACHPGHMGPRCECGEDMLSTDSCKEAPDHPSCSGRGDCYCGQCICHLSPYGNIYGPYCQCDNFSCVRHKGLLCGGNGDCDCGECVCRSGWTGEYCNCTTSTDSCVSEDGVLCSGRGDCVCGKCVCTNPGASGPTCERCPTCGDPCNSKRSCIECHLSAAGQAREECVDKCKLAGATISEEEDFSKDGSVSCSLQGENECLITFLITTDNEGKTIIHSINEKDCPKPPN

In turn, “PEGylated A20FMDV2 not bearing K(IPA)E (peptide)” yielded an IC50 in assay [1] of 2 nM. In assay [2], the internalized (% of bound radioactivity) is 44%. The bound (%) in assay [3] is 52%.

For the origin of these results see patent US20210206804A1.
